Patent US20220112296A1 (Chugai, published 2022)
Numbering of substitutions follows the chain as printed.

T1: Human CD3eg linker (human)
T1 construct: CD3 epsilon and gamma subunits joined by a 29-mer linker, C-terminal Flag-tag (in the entry); also called recombinant human CD3
T1 chain: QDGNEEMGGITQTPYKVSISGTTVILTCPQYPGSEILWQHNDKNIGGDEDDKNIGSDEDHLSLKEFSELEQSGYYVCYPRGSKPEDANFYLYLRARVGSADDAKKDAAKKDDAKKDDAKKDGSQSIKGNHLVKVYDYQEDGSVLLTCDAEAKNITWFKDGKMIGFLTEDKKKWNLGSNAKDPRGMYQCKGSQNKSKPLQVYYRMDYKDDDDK

B1: GPC3 ERY22-B (bispecific antibody, human IgG1, kappa, L234A L235A, N297A)
heavy 1: DIVMTQSPLSLPVTPGEPASISCRSSQSLVHSNRNTYLHWYQQKPGQAPRLLIYKVSNRFSGVPDRFSGSGSGTDFTLKISRVEAEDVGVYYCSQNTHVPPTFGQGTKLEIKSSASTKGPSVFPLAPSSKSTSGGTAALGCLVKDYFPEPVTVSWNSGALTSGVHTFPAVLQSSGLYSLSSVVTVPSSSLGTQTYICNVNHKPSNTKVDKKVEPKSCDKTHTCPPCPAPEAAGGPSVFLFPPKPKDTLMISRTPEVTCVVVDVSHEDPEVKFNWYVDGVEVHNAKTKPREEQYASTYRVVSVLTVLHQDWLNGKEYKCKVSNKALPAPIEKTISKAKGQPREPQVCTLPPSRDELTKNQVSLWCLVKGFYPSDIAVEWESNGQPENNYKTTPPVLDSDGSFFLYSKLTVDKSRWQQGNVFSCSVMHEALHNHYTQKSLSLSPHHHHHHHH
light 1: QVQLVQSGAEVKKPGASVKVSCKASGYTFTDYEMHWIRQPPGQGLEWIGAIDPKTGDTAYSQKFKGRVTLTADKSTSTAYMELSSLTSEDTAVYYCTRFYSYTYWGQGTLVTVSSASVAAPSVFIFPPSDEQLKSGTASVVCLLNNFYPREAKVQWKVDNALQSGNSQESVTEQDSKDSTYSLSSTLTLSKADYEKHKVYACEVTHQGLSSPVTKSFNRGEC
heavy 2: QVQLQQWGAGLLKPSETLSLTCAVYGGSFSGYYWSWIRQSPEKGLEWIGEINHGGYVTYNPSLESRVTISVDTSKNQFSLKLSSVTAADTAVYYCARDYGPGNYDWYFDLWGRGTLVTVSSASTKGPSVFPLAPSSKSTSGGTAALGCLVKDYFPEPVTVSWNSGALTSGVHTFPAVLQSSGLYSLSSVVTVPSSSLGTQTYICNVNHKPSNTKVDKKVEPKSCDKTHTCPPCPAPEAAGGPSVFLFPPKPKDTLMISRTPEVTCVVVDVSHEDPEVKFNWYVDGVEVHNAKTKPREEQYASTYRVVSVLTVLHQDWLNGKEYKCKVSNKALPAPIEKTISKAKGQPREPQVYTLPPSRCELTKNQVSLSCAVKGFYPSDIAVEWESNGQPENNYKTTPPVLDSDGSFFLVSKLTVDKSRWQQGNVFSCSVMHEALHNHYTQKSLSLSP
light 2: not shown
B2: GPC3 ERY22-dBBDu_167/L091 (bispecific antibody, human IgG1, kappa, L234A L235A, N297A)
heavy 1: B1 heavy 1
light 1: B1 light 1
heavy 2: QVQLVESGGGLVQPGRSLRLSCAASGFTFSNAWMHWVRQAPGKGLEWVAQIKDKGNLYAAYYAPSVKGRFTISRDDSKNSIYLQMNSLKTEDTAVYYCHYVHYASAGGGLPGFGVDAWGQGTTVTVSSASTKGPSVFPLAPSSKSTSGGTAALGCLVKDYFPEPVTVSWNSGALTSGVHTFPAVLQSSGLYSLSSVVTVPSSSLGTQTYICNVNHKPSNTKVDKKVEPKSCDKTHTCPPCPAPEAAGGPSVFLFPPKPKDTLMISRTPEVTCVVVDVSHEDPEVKFNWYVDGVEVHNAKTKPREEQYASTYRVVSVLTVLHQDWLNGKEYKCKVSNKALPAPIEKTISKAKGQPREPQVYTLPPSRCELTKNQVSLSCAVKGFYPSDIAVEWESNGQPENNYKTTPPVLDSDGSFFLVSKLTVDKSRWQQGNVFSCSVMHEALHNHYTQKSLSLSPDYKDDDDK
light 2: DIVMTQSPLSLPVTPGEPASISCSASESLLHNNRHTYLHWYQQKPGQAPRLLIYRVSNRFNGVPDRFSGSGSGTDFTLKISRVEAEDVGVYYCGQGTQVPFTFGQGTKLEIKRTVAAPSVFIFPPSDEQLKSGTASVVCLLNNFYPREAKVQWKVDNALQSGNSQESVTEQDSKDSTYSLSSTLTLSKADYEKHKVYACEVTHQGLSSPVTKSFNRGEC
B3: GPC3 ERY22-dBBDu_186/L096 (bispecific antibody, human IgG1, kappa, L234A L235A, N297A)
heavy 1: B1 heavy 1
light 1: B1 light 1
heavy 2: B2 heavy 2 with K54R, G55S, L57Q, A60T, S105Q, G107S, G108T, G109V, G112A
light 2: DIVMTQSPLSLPVTPGEPASISCRTSQELVHINRYIFLHWYQQKPGQAPRLLIYKVYNRFQGVPDRFSGSGSGTDFTLKISRVEAEDVGVYYCAQGTSVPYTFGQGTKLEIKRTVAAPSVFIFPPSDEQLKSGTASVVCLLNNFYPREAKVQWKVDNALQSGNSQESVTEQDSKDSTYSLSSTLTLSKADYEKHKVYACEVTHQGLSSPVTKSFNRGEC
B4: GPC3 ERY22-dBBDu_189/L119 (bispecific antibody, human IgG1, kappa, L234A L235A, N297A)
heavy 1: B1 heavy 1
light 1: B1 light 1
heavy 2: B2 heavy 2 with V48I, K54R, G55S, L57Q, A60T, S105Q, G107S, G108S, G109L, G112S
light 2: B3 light 2 with R24T, T25A, Y35F, Y57S, Q61I, T97S, S98Q, Y101F
B5: GPC3 ERY22-dBBDu_189/L116 (bispecific antibody, human IgG1, kappa, L234A L235A, N297A)
heavy 1: B1 heavy 1
light 1: B1 light 1
heavy 2: B2 heavy 2 with V48I, K54R, G55S, L57Q, A60T, S105Q, G107S, G108S, G109L, G112S
light 2: B3 light 2 with R24S, T25S, I32A, Y35Q, F37Y, Y57A, Q61P, S98Q, Y101F
B6: GPC3 ERY22-dBBDu_186/L106 (bispecific antibody, human IgG1, kappa, L234A L235A, N297A)
heavy 1: B1 heavy 1
light 1: B1 light 1
heavy 2: B2 heavy 2 with K54R, G55S, L57Q, A60T, S105Q, G107S, G108T, G109V, G112A
light 2: B3 light 2 with R24S, Q27E, V30L, Y35F, Y57A, Q61M, T97S, S98Q, Y101F
B7: GPC3 ERY22-dBBDu_183/L072 (bispecific antibody, human IgG1, kappa, L234A L235A, N297A)
heavy 1: B1 heavy 1
light 1: B1 light 1
heavy 2: B2 heavy 2 with L57A, G107S, G108T, G109V, G112A
light 2: B3 light 2 with R24Q, T25A, I32M, Y35N, I36T, F37Y, Y57S, Q61P, Y101F
B8: GPC3 ERY22-dBBDu_183/L063 (bispecific antibody, human IgG1, kappa, L234A L235A, N297A)
heavy 1: B1 heavy 1
light 1: B1 light 1
heavy 2: B2 heavy 2 with L57A, G107S, G108T, G109V, G112A
light 2: B3 light 2 with T25S, I32T, Y35H, I36T, F37Y, Y57S, Q61P, S98Q, Y101F
B9: GPC3 ERY22-dBBDu_186/L098 (bispecific antibody, human IgG1, kappa, L234A L235A, N297A)
heavy 1: B1 heavy 1
light 1: B1 light 1
heavy 2: B2 heavy 2 with K54R, G55S, L57Q, A60T, S105Q, G107S, G108T, G109V, G112A
light 2: B3 light 2 with R24A, T25A, Q27E, Y57S, Q61I, T97S, S98Q, Y101F
B10: H0868L0581 (antibody, V domains shown)
VH: QVQLVESGGGLVQPGRSLRLSCAASGFKFSNVWMHWVRQAPGKGLEWVAQIKDKYNAYAAYYAPSVKGRFTISRDDSKNSIYLQMNSLKTEDTAVYYCHYVHYASASTLLPAFGVDAWGQGTTVTVSS
VL: DIVMTQSPLSLPVTPGEPASISCQPSQEVVHMNRNTYLHWYQQKPGQAPRLLIYKVSNRFPGVPDRFSGSGSGTDFTLKISRVEAEDVGVYYCAQGTSHPFTFGQGTKLEIK
B11: H0883 (antibody, V domains shown)
VH: B10 VH with K28T, V32A, Y55G, H99R
VL: B10 VL with P25A, V29L, H99V
notes: also called H0883 (CD3); H883
B12: H1571L0581 (antibody, V domains shown)
VH: B10 VH with M34F, A60T
VL: B10 VL
B13: H0888L0581 (antibody, V domains shown)
VH: B10 VH with Y55W, V101I, V115I
VL: B10 VL
notes: Dual-Ig, captured by anti-human Fc; also called dBBDu183H0888/dBBDu072L0581
B14: H1572L0581 (antibody, V domains shown)
VH: B10 VH with M34F, F113E
VL: B10 VL
B15: H1595L0581 (antibody, V domains shown)
VH: B10 VH with V32T, V101I
VL: B10 VL
B16: H1573L0581 (antibody, V domains shown)
VH: B10 VH with M34F, K54Y
VL: B10 VL
B17: H1579L0581 (antibody, V domains shown)
VH: B10 VH with N31H, M34F
VL: B10 VL
B18: H1647L0581 (antibody, V domains shown)
VH: B10 VH with V32T, M34F, K54Y, A57D, F113E
VL: B10 VL
notes: also called H1647L0581 (CD137); Anti-CD137 variant

molecular target: human CD137 (4-1BB) on cells (human, UniProt Q07011 24-255); test: cell-based or functional assay
Sequence (Q07011 24-255): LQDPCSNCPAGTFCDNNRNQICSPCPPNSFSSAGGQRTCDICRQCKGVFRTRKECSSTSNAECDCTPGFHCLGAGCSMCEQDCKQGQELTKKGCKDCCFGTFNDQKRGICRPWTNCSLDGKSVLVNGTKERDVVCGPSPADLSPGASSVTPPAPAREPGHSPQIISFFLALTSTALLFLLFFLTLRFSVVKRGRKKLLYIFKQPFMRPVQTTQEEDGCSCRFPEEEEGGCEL

Agonistic activity compared to B, 6 ug/mL | Agonistic activity compared to B, 30 ug/mL | Agonistic activity compared to Ctrl, 6 ug/mL | Agonistic activity compared to Ctrl, 30 ug/mL | hIL-6 (pg/mL), 6 ug/mL antibody | hIL-6 (pg/mL), 30 ug/mL antibody | Binder
100% | 100% | 347% | 380% | 4520 pg/mL | 4340 pg/mL | B1
-2.21% | 1.1% | -7.68% | 4.19% | 935 pg/mL | 944 pg/mL | B2
19% | 24.2% | 66.1% | 91.7% | 1680 pg/mL | 1740 pg/mL | B3
6.92% | 20.4% | 24% | 77.3% | 1260 pg/mL | 1610 pg/mL | B4
8.28% | 19.2% | 28.7% | 72.9% | 1300 pg/mL | 1570 pg/mL | B5
13.2% | 19.4% | 45.8% | 73.6% | 1480 pg/mL | 1570 pg/mL | B6
3.21% | 15.8% | 11.1% | 59.8% | 1130 pg/mL | 1450 pg/mL | B7
-1.27% | 6.51% | -4.41% | 24.7% | 968 pg/mL | 1130 pg/mL | B8
13.9% | 24.6% | 48.3% | 93.5% | 1500 pg/mL | 1750 pg/mL | B9

Molecular target: T1, Human CD3eg linker
Test: SPR Biacore T200, 25 C, Ab captured
Method: (§1) Anti-human Fc (GE Healthcare) was immobilized onto all flow cells of a CM4 sensor chip using amine coupling kit (GE Healthcare). […] All antibodies and analytes were prepared in ACES pH 7.4 containing 20 mM ACES, 150 mM NaCl, 0.05% Tween 20, 0.005% NaN3. Sensor surface was regenerated each cycle with 3M MgCl2.

Kd | Binder
173 nM | B10
110 nM | B11
123 nM | B12
20.2 nM | B13
286 nM | B14
57 nM | B15
156 nM | B16
273 nM | B17

molecular target: T2, Human CD137 ECD (human); test: SPR Biacore T200, 37 C, Ab captured
T2 construct: C-terminal His-tag and biotin acceptor peptide are in the entry; also called human CD137 extracellular domain; recombinant human CD137
T2 sequence (chain, as listed by the source limits assumed): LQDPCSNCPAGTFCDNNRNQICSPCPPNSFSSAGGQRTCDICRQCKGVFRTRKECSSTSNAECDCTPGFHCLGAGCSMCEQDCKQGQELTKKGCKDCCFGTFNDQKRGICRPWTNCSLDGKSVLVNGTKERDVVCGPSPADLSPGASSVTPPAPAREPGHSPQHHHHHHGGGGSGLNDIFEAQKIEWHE
Method: as §1

Kd | Binder
108 nM | B10
85 nM | B12
208 nM | B13
52.1 nM | B14
195 nM | B15
70.6 nM | B16
60.5 nM | B18
275 nM | B17
